The experiment concerns the target T1, purified EGFR (epidermal growth factor receptor) (human, UniProt P00533 25-1210).
T1 construct: epidermal growth factor receptor (EGFR), human, full length protein isolated from A431 cells; also called EGFR protein; source: bought: ENZO (BML-SE116), full length protein isolated from human A431 cells
Description: co-IP; in vitro binding assay: 1 μg purified EGFR with 10 μg FLAG-PGRMC1 (a.a.44–195) treated with 50 μmol l^−1 haemin, anti-FLAG (M2) agarose; 20 mmol l^−1 HEPES-NaOH (pH 7.9), 100 mmol l^−1 NaCl, 0.2 mmol l^−1 EDTA, 10% glycerol, 0.1% NP40, room temperature. The conditions noted are these: both partners purified.

B1: FLAG-PGRMC1 wild-type (a.a.44–195) (domain or fragment)
chain: not shown
notes: progesterone-receptor membrane component 1 (PGRMC1), human, cytosolic domain a.a.44–195; The cloning of the FLAG-tagged 44–195 construct is not described; probably made like the other a.a.44–195 proteins (pGEX6P-1, E. coli BL21 (DE3), GST cleaved); Used as apo form or treated with 50 μmol l^−1 haemin; also called FLAG-PGRMC1 wt (a.a.44–195); cytosolic domain of wild-type PGRMC1
Regarding B1, the binding result is given as “binds”.

The values are drawn from paper PMC4802085, “Haem-dependent dimerization of PGRMC1/Sigma-2 receptor facilitates cancer proliferation and chemoresistance” (Nature Communications, 2016).
